Experimental data reported in patent publication US20130171217A1, “ENZYMATIC PERACID GENERATION FOR USE IN SKIN CARE PRODUCTS” (E I DU PONT DE NEMOURS AND COMPANY, priority 2010, published 2013).

Columns and labels:
[1] = Two-step treatment of hair tresses, color loss ΔE; settings: 2500 μg/mL (E/H 10), 20 min/cycle, 1 cycle
[2] = PAA generation with different perhydrolases and substrates, HPLC Karst assay; format: biochemical
Method: HC1121 is a CE-7 class carbohydrate esterase from Thermotoga maritima (C2775-HC263; SEQ ID NO: 288), and HC1169 is an aryl esterase from M. smegmatis (ArE-HC263; SEQ ID NO: 323). Both enzymes were tested for their perhydrolytic activity with substrates triacetin or propylene glycol diacetate (PGDA, Aldrich 528072) and hydrogen peroxide between pH 5 and pH 7.2. Enzyme free reactions for some reaction conditions were run to determine the non-enzymatic generation of peracetic acid as well. At the end of reaction, the reaction was quenched by acidification 10 or 25 fold with 100 mM H3PO4. The quenched samples were filtered using a NANOSEP® MF centrifugal device (30K Molecular Weight Cutoff (MWCO), Pall Life Sciences, Ann Arbor, Mich., P/N OD030C35) by centrifugation for 6 min at 12,000 rpm. The filtrates were assayed by HPLC Karst assay in duplicates to determine the amount of peracetic acid (PAA) generated at those reaction conditions.

[3] = One-step enzymatic PAA generation, HPLC peracetic acid assay; format: biochemical
Method: Determination of the peracetic acid (PAA) concentration in the reaction mixtures was performed according to the method described by Pinkernell et al., Anal. Chem. 1997, 69(17):3623-3627. Aliquots (0.040 mL) of the reaction mixture were removed at predetermined times and mixed with 0.960 mL of 5 mM phosphoric acid in water; adjustment of the pH of the diluted sample to less than pH 4 immediately terminated the reaction. The resulting solution was filtered using an ULTRAFREE® MC-filter unit (30,000 Normal Molecular Weight Limit (NMWL), Millipore cat #UFC3LKT 00) by centrifugation for 2 min at 12,000 rpm. An aliquot (0.100 mL) of the resulting filtrate was transferred to 1.5-mL screw cap HPLC vial (Agilent Technologies, Palo Alto, Calif.; #5182-0715) containing 0.300 mL of deionized water, then 0.100 mL of 20 mM MTS (methyl-p-tolyl-sulfide) in acetonitrile was added, the vials capped, and the contents briefly mixed prior to a 10 min incubation at ca. 25° C. in the absence of light. To each vial was then added 0.400 mL of acetonitrile and 0.100 mL of a solution of triphenylphosphine (TPP, 40 mM) in acetonitrile, the vials re-capped, and the resulting solution mixed and incubated at ca. 25° C. for 30 min in the absence of light. To each vial was then added 0.100 mL of 10 mM N,N-diethyl-m-toluamide (DEET; HPLC external standard) and the resulting solution analyzed by HPLC (Waters Alliance 2695, Waters Corporation; MA).
Supelco Discovery C8 column (10 cm×4.0-mm, 5 μm) (cat. #569422-U) w/precolumn Supelco Supelguard Discovery C8 (Sigma-Aldrich; cat #59590-U); 10 microliter injection volume; gradient method with CH3CN (Sigma-Aldrich; #270717) and deionized water at 1.0 mL/min and ambient temperature:
The first method (referred to herein as the “one-step approach”) comprises combining different amounts of at least one CE-7 perhydrolase with triacetin (an example of a suitable ester substrate) and hydrogen peroxide to generate peracetic acid. Hair bundles were inserted into “one step approach” solutions for 15 min immediately after mixing the enzyme solution with triacetin solution (final concentration was about 100 mM) and H2O2 solution (final concentration was about 250 mM). The hair samples were rinsed with water and dried. The method was repeated for another 15 times (total application was 16 times). In one experiment, two perhydrolase enzymes were used, i.e., untargeted T. maritima variant C277S (“C277S”; “PAH”; SEQ ID NO: 293) and “C277S-HC263” (SEQ ID NO: 288). The concentration of peracetic acid in solution after 15 min was evaluated by HPLC.

[4] = 10 μg/mL enzyme, 250 mM triacetin, 100 mM H2O2, 20% LUBRIDERM® in pH 7.2, 100 mM phosphate buffer, 60 min

B1: C277S-HC263: C277S variant of Thermotoga maritima perhydrolase fused via a flexible linker to hair-binding domain HC263 (protein)
chain: MAFFDLPLEELKKYRPERYEEKDFDEFWEETLAESEKFPLDPVFERMESHLKTVEAYDVTFSGYRGQRIKGWLLVPKLEEEKLPCVVQYIGYNGGRGFPHDWLFWPSMGYICFVMDTRGQGSGWLKGDTPDYPEGPVDPQYPGFMTRGILDPRTYYYRRVFTDAVRAVEAAASFPQVDQERIVIAGGSQGGGIALAVSALSKKAKALLCDVPFLCHFRRAVQLVDTHPYAEITNFLKTHRDKEEIVFRTLSYFDGVNFAARAKIPALFSVGLMDNISPPSTVFAAYNYYAGPKEIRIYPYNNHEGGGSFQAVEQVKFLKKLFEKGGPGSGGAGSPGSAGGPGSPSAQSQLPDKHSGLHERAPQRYGPEPEPEPEPIPEPPKEAPVVIEKPKPKPKPKPKPPAHDHKNQKETHQRHAAGSGGGGSPHHHHHH
[1]
  ΔE of color loss: 2
[2]; [4]
  PAA: 4451 ppm
[2]; 50 μg/mL enzyme, 100 mM triacetin, 250 mM H2O2, pH 5, 50 mM citrate buffer, 5 min
  PAA: 277 ppm
[2]; 50 μg/mL enzyme, 100 mM triacetin, 250 mM H2O2, pH 5.6, 50 mM citrate buffer, 5 min
  PAA: 1222 ppm
[2]; 50 μg/mL enzyme, 100 mM triacetin, 250 mM H2O2, pH 6, 50 mM citrate buffer, 5 min
  PAA: 2350 ppm
[2]; 50 μg/mL enzyme, 100 mM triacetin, 250 mM H2O2, pH 6.6, 50 mM citrate-phosphate buffer, 5 min
  PAA: 4067 ppm
[2]; 50 μg/mL enzyme, 100 mM triacetin, 250 mM H2O2, pH 7, 50 mM pyrophosphate buffer, 5 min
  PAA: 4832 ppm
[3]; 0.05 mg/mL enzyme
  PAA generated: about 0.2 wt %
[3]; 0.05 mg/mL enzyme, urea 0 wt %, after 15 min
  PAA: 1983 ppm
[3]; 0.25 mg/mL enzyme, urea 0 wt %, after 15 min
  PAA: 3948 ppm
[3]; 0.5 mg/mL enzyme, urea 0 wt %, ~100 mM triacetin, ~250 mM H2O2, after 15 min
  PAA: 4132 ppm
[3]; same weight basis, under testing condition
  perhydrolase activity lower than C277S: 2-3 times

B2: SEQ ID NO: 323: S54V variant of the aryl esterase from Mycobacterium smegmatis fused to hair binding domain HC263 via a flexible linker (protein)
chain: MAKRILCFGDSLTWGWVPVEDGAPTERFAPDVRWTGVLAQQLGADFEVIEEGLVARTTNIDDPTDPRLNGASYLPSCLATHLPLDLVIIMLGTNDTKAYFRRTPLDIALGMSVLVTQVLTSAGGVGTTYPAPKVLVVSPPPLAPMPHPWFQLIFEGGEQKTTELARVYSALASFMKVPFFDAGSVISTDGVDGIHFTEANNRDLGVALAEQVRSLLGPGSGGAGSPGSAGGPGSPSAQSQLPDKHSGLHERAPQRYGPEPEPEPEPIPEPPKEAPVVIEKPKPKPKPKPKPPAHDHKNQKETHQRHAAGSGGGGSPHHHHHH
[2]; 10 μg/mL enzyme, 250 mM PGDA, 100 mM H2O2, pH 5, 100 mM citrate buffer, 30 min
  PAA: 4158 ppm
[2]; 10 μg/mL enzyme, 250 mM PGDA, 100 mM H2O2, pH 5.6, 100 mM citrate buffer, 30 min
  PAA: 4482 ppm
[2]; 10 μg/mL enzyme, 250 mM PGDA, 100 mM H2O2, pH 6, 100 mM citrate buffer, 30 min
  PAA: 4647 ppm
[2]; 10 μg/mL enzyme, 250 mM PGDA, 100 mM H2O2, pH 6.6, 100 mM phosphate buffer, 30 min
  PAA: 4608 ppm
[2]; 10 μg/mL enzyme, 250 mM PGDA, 100 mM H2O2, pH 7.2, 100 mM phosphate buffer, 30 min
  PAA: 4450 ppm
[2]; [4]
  PAA: 3433 ppm
[2]; 20 μg/mL enzyme, 250 mM PGDA, 100 mM H2O2, pH 5, 100 mM citrate buffer, 30 min
  PAA: 4140 ppm
[2]; 20 μg/mL enzyme, 250 mM PGDA, 100 mM H2O2, pH 5.6, 100 mM citrate buffer, 30 min
  PAA: 4403 ppm
[2]; 20 μg/mL enzyme, 250 mM PGDA, 100 mM H2O2, pH 6, 100 mM citrate buffer, 30 min
  PAA: 4609 ppm
[2]; 20 μg/mL enzyme, 250 mM PGDA, 100 mM H2O2, pH 6.6, 100 mM phosphate buffer, 30 min
  PAA: 4526 ppm
[2]; 20 μg/mL enzyme, 250 mM PGDA, 100 mM H2O2, pH 7.2, 100 mM phosphate buffer, 30 min
  PAA: 4726 ppm
[2]; 20 μg/mL enzyme, 250 mM triacetin, 100 mM H2O2, pH 5, 100 mM citrate buffer, 30 min
  PAA: 3680 ppm
[2]; 20 μg/mL enzyme, 250 mM triacetin, 100 mM H2O2, pH 5.6, 100 mM citrate buffer, 30 min
  PAA: 4429 ppm
[2]; 20 μg/mL enzyme, 250 mM triacetin, 100 mM H2O2, pH 6, 100 mM citrate buffer, 30 min
  PAA: 4616 ppm
[2]; 20 μg/mL enzyme, 250 mM triacetin, 100 mM H2O2, pH 6.6, 100 mM phosphate buffer, 30 min
  PAA: 4488 ppm
[2]; 20 μg/mL enzyme, 250 mM triacetin, 100 mM H2O2, pH 7.2, 100 mM phosphate buffer, 30 min
  PAA: 4812 ppm

B3: C277S: non-targeted C277S variant of the Thermotoga maritima perhydrolase, un-targeted control (protein, listed as Thermotoga maritima)
chain: MAFFDLPLEELKKYRPERYEEKDFDEFWEETLAESEKFPLDPVFERMESHLKTVEAYDVTFSGYRGQRIKGWLLVPKLEEEKLPCVVQYIGYNGGRGFPHDWLFWPSMGYICFVMDTRGQGSGWLKGDTPDYPEGPVDPQYPGFMTRGILDPRTYYYRRVFTDAVRAVEAAASFPQVDQERIVIAGGSQGGGIALAVSALSKKAKALLCDVPFLCHFRRAVQLVDTHPYAEITNFLKTHRDKEEIVFRTLSYFDGVNFAARAKIPALFSVGLMDNISPPSTVFAAYNYYAGPKEIRIYPYNNHEGGGSFQAVEQVKFLKKLFEKG
[3]; 0.05 mg/mL enzyme, urea 10 wt %, after 15 min
  PAA: 6448 ppm
[3]; 0.25 mg/mL enzyme, urea 10 wt %, after 15 min
  PAA: 14053 ppm
[3]; 0.5 mg/mL enzyme, urea 10 wt %, after 15 min
  PAA: 13656 ppm
